The source of these data is PMC4452343, “Monitoring β-arrestin recruitment via β-lactamase enzyme fragment complementation: purification of peptide E as a low-affinity ligand for mammalian bombesin receptors” (PLoS ONE, 2015).

The assay concerns the target gastrin-releasing peptide receptor (human) (UniProt P30550).

Chain of gastrin-releasing peptide receptor (human) (P30550 whole entry): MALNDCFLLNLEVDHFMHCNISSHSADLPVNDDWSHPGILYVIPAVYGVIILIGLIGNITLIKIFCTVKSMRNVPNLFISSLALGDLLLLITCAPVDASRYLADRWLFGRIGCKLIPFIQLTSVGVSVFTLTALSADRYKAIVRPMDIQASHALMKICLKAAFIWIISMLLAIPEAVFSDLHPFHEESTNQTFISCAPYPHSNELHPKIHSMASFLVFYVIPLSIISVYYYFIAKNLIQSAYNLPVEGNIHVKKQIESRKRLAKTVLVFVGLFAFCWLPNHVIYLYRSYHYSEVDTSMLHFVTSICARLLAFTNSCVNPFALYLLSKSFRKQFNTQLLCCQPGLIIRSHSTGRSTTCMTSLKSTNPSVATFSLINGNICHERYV

Consider VPLPAGGGTVLTKMYPRGNHWAVGHLM [gastrin-releasing peptide], for which the EC50 of NFAT-luciferase reporter activation in CHO cells expressing hGRPR worked out at 120 pM.
